The chains are these.
B1: 5T4 9-mer peptide 86 APSPLVELI (peptide)
peptide: APSPLVELI
B2: 5T4 9-mer peptide 71 LPSLRQLDL (peptide)
peptide: LPSLRQLDL
B3: 5T4 9-mer peptide 117 LPSLRHLDL (peptide)
peptide: LPSLRHLDL
B4: 5T4 9-mer peptide 97 RSFEGMVVA (peptide)
peptide: RSFEGMVVA
B5: 5T4 9-mer peptide 90 ILNHIVPPE (peptide)
peptide: ILNHIVPPE
B6: 5T4 9-mer peptide 91 NHIVPPEDE (peptide)
peptide: NHIVPPEDE
B7: 5T4 9-mer peptide 80 PFAFSGSNA (peptide)
peptide: PFAFSGSNA
B8: 5T4 9-mer peptide 82 SGSNASVSA (peptide)
peptide: SGSNASVSA
B9: 5T4 9-mer peptide 78 ADLSPFAFS (peptide)
peptide: ADLSPFAFS
B10: 5T4 9-mer peptide 95 ERQNRSFEG (peptide)
peptide: ERQNRSFEG
B11: 5T4 9-mer peptide 76 HNPLADLSP (peptide)
peptide: HNPLADLSP
B12: 5T4 9-mer peptide 89 ELILNHIVP (peptide)
peptide: ELILNHIVP
B13: 5T4 9-mer peptide 93 PPEDERQNR (peptide)
peptide: PPEDERQNR
B14: 5T4 9-mer peptide 73 RQLDLSHNP (peptide)
peptide: RQLDLSHNP
B15: 5T4 9-mer peptide 100 VVAALLAGR (peptide)
peptide: VVAALLAGR
B16: 5T4 9-mer peptide 72 SLRQLDLSH (peptide)
peptide: SLRQLDLSH
B17: 5T4 9-mer peptide 84 ASVSAPSPL (peptide)
peptide: ASVSAPSPL
B18: 5T4 9-mer peptide 74 LDLSHNPLA (peptide)
peptide: LDLSHNPLA
B19: 5T4 9-mer peptide 99 GMVVAALLA (peptide)
peptide: GMVVAALLA
B20: 5T4 9-mer peptide 69 AFEHLPSLR (peptide)
peptide: AFEHLPSLR
B21: 5T4 9-mer peptide 87 SPLVELILN (peptide)
peptide: SPLVELILN
B22: 5T4 9-mer peptide 68 AGAFEHLPS (peptide)
peptide: AGAFEHLPS
B23: 5T4 9-mer peptide 94 EDERQNRSF (peptide)
peptide: EDERQNRSF
B24: 5T4 9-mer peptide 70 EHLPSLRQL (peptide)
peptide: EHLPSLRQL
B25: 5T4 9-mer peptide 81 AFSGSNASV (peptide)
peptide: AFSGSNASV
B26: 5T4 9-mer peptide 75 LSHNPLADL (peptide)
peptide: LSHNPLADL
B27: 5T4 9-mer peptide 67 VRAGAFEHL (peptide)
peptide: VRAGAFEHL
B28: 5T4 9-mer peptide 79 LSPFAFSGS (peptide)
peptide: LSPFAFSGS
B29: 5T4 9-mer peptide 92 IVPPEDERQ (peptide)
peptide: IVPPEDERQ
B30: 5T4 9-mer peptide 66 DEVRAGAFE (peptide)
peptide: DEVRAGAFE
B31: 5T4 9-mer peptide 96 QNRSFEGMV (peptide)
peptide: QNRSFEGMV
B32: 5T4 9-mer peptide 88 LVELILNHI (peptide)
peptide: LVELILNHI
B33: 5T4 9-mer peptide 77 PLADLSPFA (peptide)
peptide: PLADLSPFA
B34: 5T4 9-mer peptide 85 VSAPSPLVE (peptide)
peptide: VSAPSPLVE
B35: 5T4 9-mer peptide 98 FEGMVVAAL (peptide)
peptide: FEGMVVAAL
B36: 5T4 9-mer peptide 83 SNASVSAPS (peptide)
peptide: SNASVSAPS

Results on 36 molecules are retold here after patent US20090280138A1 (OXFORD BIOMEDICA UK, published 2009).

One assay concerns the target T1, MHC class I molecule A*0101 (biotin (bound to streptavidin-coated plate)).
T1 construct: also called A1; HLA-A1
Nature of the assay: iTopia iScore. The method, then: (§1) The 9 mers were tested for Peptide Binding, Off Rate and Affinity using iTopia Epitope Discovery System in accordance with the manufacturer's instructions. Briefly, 96 well microtitre plates coated with MHC molecules representing different MHC alleles are used to identify candidate peptides. […] Determinations are performed in duplicate using an ELISA plate reader and included allele specific positive controls.
(§2) Finally, multiparametric analysis is performed on the results from these assays and an iScore is generated. The iScore represents a measure of the overall quality of peptide-MHC binding, enabling candidate peptides to be ranked in order of binding quality and allowing rational prioritisation of peptides for functional cellular follow-up studies.
For the molecule B1, the iScore was found to be 0.
Regarding B2, the iScore worked out at 0.
B3 came in with an iScore of 0.
For the molecule B4, the iScore amounted to 0.
In the case of B5, the iScore worked out at 0.
B6 yielded an iScore of 0.
The molecule B7 registered an iScore of 0.
Turning to B8, the iScore amounted to 0.
On the same count and under the same terms, the same measure for B9: 0; for B10: 0; for B11: 0.
B12: the iScore was determined as 0.
B13 gave an iScore of 0.
For B14, the iScore was determined as 0.
In turn, B15 returned an iScore of 0.
In turn, B16 gave an iScore of 0.
B17 showed an iScore of 0.
B18 came in with an iScore of 0.
The same measure, in the same setting: in the case of B19 it was 0; in that of B20, 0.
B21 came in with an iScore of 0.
With B22, the iScore was found to be 0.
Still for that read-out and setting: in the case of B23 it was 0; in that of B24, 0; in that of B25, 0.
In turn, B26 returned an iScore of 0.
B27 returned an iScore of 0.
Same read-out and setting: the same measure for B28: 0; for B29: 0.
The molecule B30 registered an iScore of 0.
As to B31, the iScore worked out at 0.
B32 returned an iScore of 0.
The same measure, in the same setting: in the case of B33 it was 0; in that of B34, 0; in that of B35, 0.
Molecule B36 returned an iScore of 0.

A further assay addresses T2, MHC class I molecule A*0301 (biotin (bound to streptavidin-coated plate)).
T2 construct: also called A3; HLA-A3
Briefly: iTopia iScore. The method, then: as §1, §2
In the case of B1, the iScore came to 0.
As for B2, the iScore is 0.
Take B3: the iScore was found to be 0.
In the case of B4, the iScore was determined as 0.
Take B5: the iScore worked out at 0.
In turn, B6 gave an iScore of 0.
B7 had an iScore of 0.
The molecule B8 had an iScore of 0.
The molecule B9 yielded an iScore of 0.
B10 registered an iScore of 0.
Molecule B11 registered an iScore of 0.
B12 had an iScore of 0.
Consider B13, for which the iScore turned out to be 0.
B14 displayed an iScore of 0.
B15 yielded an iScore of 0.125.
The same measure, in the same setting: the same measure for B16: 0.
The molecule B17 gave an iScore of 0.
The molecule B18 came in with an iScore of 0.
For B19, the iScore is 0.
Take B20: the iScore worked out at 0.
The molecule B21 had an iScore of 0.
Molecule B22 came in with an iScore of 0.
Molecule B23 registered an iScore of 0.
Same read-out and setting: the same measure for B24: 0.
Turning to B25, the iScore stood at 0.
Take B26: the iScore turned out to be 0.
On to B27, for which the iScore was determined as 0.
Still for that read-out and setting: the same measure for B28: 0; for B29: 0.
Take B30: the iScore is 0.
Take B31: the iScore worked out at 0.
In turn, B32 yielded an iScore of 0.
The molecule B33 had an iScore of 0.
In the case of B34, the iScore was found to be 0.
With B35, the iScore worked out at 0.
On the same count and under the same terms, in the case of B36 it was 0.

The target of another assay is T3, MHC class I molecule B*0702 (biotin (bound to streptavidin-coated plate)).
T3 construct: also called B7; HLA-B7
Briefly: iTopia iScore. How it is done:
as §1, §2
B1 showed an iScore of 0.101.
The molecule B2 gave an iScore of 0.454.
In the case of B3, the iScore worked out at 0.445.
The molecule B4 returned an iScore of 0.
Regarding B5, the iScore was found to be 0.
B6 displayed an iScore of 0.
Turning to B7, the iScore was determined as 0.
The molecule B8 returned an iScore of 0.
With B9, the iScore was determined as 0.
Consider B10, for which the iScore turned out to be 0.
Molecule B11 had an iScore of 0.
As to B12, the iScore stood at 0.
B13: the iScore is 0.
In the case of B14, the iScore amounted to 0.
Consider B15, for which the iScore was determined as 0.
The same measure, in the same setting: in the case of B16 it was 0; in that of B17, 0.017; in that of B18, 0.
Molecule B19 had an iScore of 0.
Take B20: the iScore worked out at 0.
B21 had an iScore of 0.
Molecule B22 showed an iScore of 0.
B23 yielded an iScore of 0.
On the same count and under the same terms, in the case of B24 it was 0.
On the same count and under the same terms, the same measure for B25: 0; for B26: 0; for B27: 0.085.
B28 had an iScore of 0.
The molecule B29 returned an iScore of 0.
Take B30: the iScore was determined as 0.
In the case of B31, the iScore was 0.
B32: the iScore came to 0.
Molecule B33 gave an iScore of 0.
Molecule B34 displayed an iScore of 0.
The same measure, in the same setting: the same measure for B35: 0; for B36: 0.

The next assay has as its target T4, MHC class I molecule A*0201 (biotin (bound to streptavidin-coated plate)).
T4 construct: also called A2; HLA-A2
Briefly: iTopia iScore. The method, then: as §1, §2
In the case of B1, the iScore came out at 0.
Turning to B2, the iScore is 0.098.
On the same count and under the same terms, in the case of B3 it was 0.028.
In turn, B4 showed an iScore of 0.189.
In turn, B5 gave an iScore of 0.426.
The same measure, in the same setting: in the case of B6 it was 0; in that of B7, 0; in that of B8, 0.
For the molecule B9, the iScore was 0.116.
B10 returned an iScore of 0.
B11: the iScore came out at 0.
On the same count and under the same terms, in the case of B12 it was 0.067.
B13 gave an iScore of 0.
As for B14, the iScore came to 0.
On to B15, for which the iScore is 0.
For the molecule B16, the iScore worked out at 0.
Turning to B17, the iScore is 0.059.
Still for that read-out and setting: the same measure for B18: 0.226; for B19: 0.384; for B20: 0.
B21 showed an iScore of 0.094.
In turn, B22 gave an iScore of 0.
In turn, B23 displayed an iScore of 0.
Molecule B24 had an iScore of 0.046.
The molecule B25 yielded an iScore of 0.116.
Consider B26, for which the iScore is 0.095.
As to B27, the iScore amounted to 0.
Same read-out and setting: the same measure for B28: 0.064.
B29 displayed an iScore of 0.
Molecule B30 gave an iScore of 0.
B31 came in with an iScore of 0.052.
For the molecule B32, the iScore came out at 0.109.
In the case of B33, the iScore was 0.556.
Turning to B34, the iScore was found to be 0.
Molecule B35 displayed an iScore of 0.051.
B36 came in with an iScore of 0.154.
